Measured values from patent publication US20180086825A1 (published 2018).

Molecular target: T1, Ang2 protein (R&D systems) (human, UniProt O15123 19-496, limits assumed)
T1 sequence: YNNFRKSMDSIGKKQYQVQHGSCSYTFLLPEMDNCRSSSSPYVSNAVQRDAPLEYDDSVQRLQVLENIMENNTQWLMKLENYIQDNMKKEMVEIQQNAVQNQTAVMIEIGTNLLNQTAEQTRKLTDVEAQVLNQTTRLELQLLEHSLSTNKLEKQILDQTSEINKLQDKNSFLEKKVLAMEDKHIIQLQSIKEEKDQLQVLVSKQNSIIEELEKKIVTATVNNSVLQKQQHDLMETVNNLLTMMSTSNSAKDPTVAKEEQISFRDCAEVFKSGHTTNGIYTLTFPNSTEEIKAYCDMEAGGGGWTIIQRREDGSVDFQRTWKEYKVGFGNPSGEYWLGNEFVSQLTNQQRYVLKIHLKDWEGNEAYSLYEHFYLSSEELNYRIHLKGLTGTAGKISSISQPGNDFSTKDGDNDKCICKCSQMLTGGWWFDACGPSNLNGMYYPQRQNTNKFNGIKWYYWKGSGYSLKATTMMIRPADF
Experiment: cell-based or functional assay

B1: SAIT-ANG2-AB-m10D6 (antibody, V domains shown)
VH: DVQLQESGPGLVKPSQSLSLTCTVTGYSITSDYAWNWIRQFPGNKLEWMGYINYSGNTDYNPSLKSRSSITRDTSKNQFFLQLNSVTTGDTATYYCARGNFEGAMDYWGQGTSVTVSS
VL: SIVMTQTPKFLLVSAGDRVTITCKASQSVSNDVAWYQQKPGQSPKLLIYYASNRYPGVPDRFTGSGYGTDFTFTISTVQAEDLAVYFCQQDYSSPWTFGGGTKLEIK
Tie2 phosphorylation level (pTyr/Tie2 ratio, HUVEC, 60 nM antibody with Ang2): 180%
